Results: patent US10434147B2, “Treatment type 2 diabetes mellitus patients” (Sanofi-Aventis Deutschland GmbH, priority 2015, dated 2019)

Assays:
Assay type in all cases: in vivo, human
[1] = system: Patients with Type 2 Diabetes Insufficiently Controlled with Insulin Glargine with or without Metformin; assay: Treatment-emergent adverse events, 26-week study; details: in vivo
Source text: (§1) FIG. 6—Graphical study design. ^1 Insulin glargine should be injected subcutaneously once daily at dinner or breakfast time (according to patient's/investigators' preference). […] Meal used for insulin glulisine dosing should remain the same throughout the 26-week treatment period. ^4 Injection of insulin glulisine prior to breakfast, lunch and dinner.
(§2) Co-primary endpoints at 26 weeks were (1) non-inferiority (95% CI upper bound <0.4%) in HbA1c reduction with LIXI vs GLU-1 and (2) for LIXI vs GLU-3, either non-inferiority in HbA1c reduction (2a) OR superiority (one-sided α≤0.025) in body weight change (2b). FPG, PPG, IG dose, composite outcomes, AEs, and hypoglycemia were assessed.

[2] = system: Patients with Type 2 Diabetes Insufficiently Controlled with Insulin Glargine with or without Metformin; assay: Fasting plasma glucose, 26-week study
Source text: as §1, §2

[3] = system: Patients with Type 2 Diabetes Insufficiently Controlled with Insulin Glargine with or without Metformin
[4] = Baseline (before IMP), mITT population
[5] = Week 26 (LOCF), mITT population

Insulin Glulisine QD: insulin glulisine once daily, added to insulin glargine ± metformin (comparator arm)
Patients with treatment emergent SAE: Invasive ductal breast carcinoma [1]: 0 n (%)
Patients with treatment emergent SAE: Metabolism and nutrition disorders (SOC) [1]: 2 (0.7%) n (%)
Patients with treatment emergent SAE: Myocardial infarction [1]: 1 (0.3%) n (%)
Patients with treatment emergent SAE: Myocardial ischaemia [1]: 0 n (%)
Patients with treatment emergent SAE: Neoplasm malignant [1]: 0 n (%)
Patients with treatment emergent SAE: Neoplasms benign, malignant and unspecified (incl cysts and polyps) (SOC) [1]: 0 n (%)
Patients with treatment emergent SAE: Nervous system disorders (SOC) [1]: 3 (1.0%) n (%)
Patients with treatment emergent SAE: Neuritis cranial [1]: 1 (0.3%) n (%)
Patients with treatment emergent SAE: Pancreatic carcinoma metastatic [1]: 0 n (%)
Patients with treatment emergent SAE: Penile infection [1]: 0 n (%)
Patients with treatment emergent SAE: Renal and urinary disorders (SOC) [1]: 0 n (%)
Patients with treatment emergent SAE: Renal failure [1]: 0 n (%)
Patients with treatment emergent SAE: Renal failure acute [1]: 0 n (%)
Patients with treatment emergent SAE: Septic arthritis staphylococcal [1]: 0 n (%)
Patients with treatment emergent SAE: Skin and subcutaneous tissue disorders (SOC) [1]: 0 n (%)
Patients with treatment emergent SAE: Skin ulcer haemorrhage [1]: 0 n (%)
Patients with treatment emergent SAE: Uterine cancer [1]: 0 n (%)
Patients with treatment emergent SAE: Vascular disorders (SOC) [1]: 0 n (%)
TEAE leading to permanent treatment discontinuation: Abdominal pain [1]: 0 n (%)
TEAE leading to permanent treatment discontinuation: Any class [1]: 2 (0.7%) n (%)
TEAE leading to permanent treatment discontinuation: Ascites [1]: 0 n (%)
TEAE leading to permanent treatment discontinuation: Blood and lymphatic system disorders (SOC) [1]: 0 n (%)
TEAE leading to permanent treatment discontinuation: Blood glucose decreased [1]: 1 (0.3%) n (%)
TEAE leading to permanent treatment discontinuation: Cardiac disorders (SOC) [1]: 0 n (%)
TEAE leading to permanent treatment discontinuation: Cardiac failure chronic [1]: 0 n (%)
TEAE leading to permanent treatment discontinuation: Cough [1]: 0 n (%)
TEAE leading to permanent treatment discontinuation: Decreased appetite [1]: 0 n (%)
TEAE leading to permanent treatment discontinuation: Dehydration [1]: 0 n (%)
TEAE leading to permanent treatment discontinuation: Diabetic bullosis [1]: 0 n (%)
TEAE leading to permanent treatment discontinuation: Diarrhoea [1]: 0 n (%)
TEAE leading to permanent treatment discontinuation: Dyspepsia [1]: 0 n (%)
TEAE leading to permanent treatment discontinuation: Epigastric discomfort [1]: 0 n (%)
TEAE leading to permanent treatment discontinuation: Gastric ulcer haemorrhage [1]: 0 n (%)
TEAE leading to permanent treatment discontinuation: Gastrointestinal disorders (SOC) [1]: 0 n (%)
TEAE leading to permanent treatment discontinuation: Headache [1]: 0 n (%)
TEAE leading to permanent treatment discontinuation: Hepatic mass [1]: 0 n (%)
TEAE leading to permanent treatment discontinuation: Hepatobiliary disorders (SOC) [1]: 0 n (%)
TEAE leading to permanent treatment discontinuation: Hot flush [1]: 0 n (%)
TEAE leading to permanent treatment discontinuation: Hypoglycaemia [1]: 0 n (%)
TEAE leading to permanent treatment discontinuation: Immune system disorders (SOC) [1]: 0 n (%)
TEAE leading to permanent treatment discontinuation: Invasive ductal breast carcinoma [1]: 0 n (%)
TEAE leading to permanent treatment discontinuation: Investigations (SOC) [1]: 1 (0.3%) n (%)
TEAE leading to permanent treatment discontinuation: Lymphadenopathy [1]: 0 n (%)
TEAE leading to permanent treatment discontinuation: Metabolism and nutrition disorders (SOC) [1]: 0 n (%)
TEAE leading to permanent treatment discontinuation: Metastases to liver [1]: 0 n (%)
TEAE leading to permanent treatment discontinuation: Metastases to peritoneum [1]: 0 n (%)
TEAE leading to permanent treatment discontinuation: Nasal congestion [1]: 0 n (%)
TEAE leading to permanent treatment discontinuation: Nausea [1]: 0 n (%)
TEAE leading to permanent treatment discontinuation: Neoplasms benign, malignant and unspecified (incl cysts and polyps) (SOC) [1]: 0 n (%)
TEAE leading to permanent treatment discontinuation: Nervous system disorders (SOC) [1]: 1 (0.3%) n (%)
TEAE leading to permanent treatment discontinuation: Pancreatic carcinoma metastatic [1]: 0 n (%)
TEAE leading to permanent treatment discontinuation: Renal and urinary disorders (SOC) [1]: 0 n (%)
TEAE leading to permanent treatment discontinuation: Renal failure [1]: 0 n (%)
TEAE leading to permanent treatment discontinuation: Respiratory, thoracic and mediastinal disorders (SOC) [1]: 0 n (%)
TEAE leading to permanent treatment discontinuation: Seasonal allergy [1]: 0 n (%)
TEAE leading to permanent treatment discontinuation: Skin and subcutaneous tissue disorders (SOC) [1]: 0 n (%)
TEAE leading to permanent treatment discontinuation: Skin ulcer haemorrhage [1]: 0 n (%)
TEAE leading to permanent treatment discontinuation: Thrombosis [1]: 0 n (%)
TEAE leading to permanent treatment discontinuation: Tremor [1]: 1 (0.3%) n (%)
TEAE leading to permanent treatment discontinuation: Vascular disorders (SOC) [1]: 0 n (%)
TEAE leading to permanent treatment discontinuation: Vomiting [1]: 0 n (%)
Total number of patients with any event adjudicated as pancreatitis by PSAC [1]: 0 n (%)
Fasting plasma glucose change to Week 26, LS Mean difference (SE) of Lixisenatide vs. the labelled insulin glulisine arm ([2]; ANCOVA, mITT population): −0.01 (0.157) mmol/L
Fasting plasma glucose, Change from baseline to Week 26 (LOCF), LS Mean (SE) ([2]; ANCOVA, mITT population): −0.21 (0.142) mmol/L
FPG, BL (end run-in) mean ± SD ([2]; BL (end run-in), mITT): 123 ± 36 mg/dL
Fasting plasma glucose, Baseline, Mean (SD) [2, 4]: 6.85 (1.99) mmol/L
Fasting plasma glucose, Baseline, Median [2, 4]: 6.50 mmol/L
FPG, Screening (start run-in) mean ± SD ([2]; Screening (start run-in), mITT): 167 ± 52 mg/dL
FPG, Week 26 (LOCF) mean ± SD ([2]; Week 26 (LOCF), mITT): 120 ± 35 mg/dL
Fasting plasma glucose, Week 26 (LOCF), Mean (SD) [2, 5]: 6.66 (1.94) mmol/L
Fasting plasma glucose, Week 26 (LOCF), Median [2, 5]: 6.40 mmol/L
FPG, LS mean treatment difference (lixisenatide vs the labelled arm) ([2]; Week 26, mITT): 0 mg/dL
FPG, LS mean ± SE change from BL ([2]; Week 26, mITT): -4 ± 3 mg/dL
Fasting plasma glucose, Change from baseline to Week 26 (LOCF), Mean (SD) ([2]; mITT population): −0.19 (2.52) mmol/L
Fasting plasma glucose, Change from baseline to Week 26 (LOCF), Median ([2]; mITT population): -0.10 mmol/L
Reason for treatment discontinuation: Lack of efficacy ([3]; Randomized population, HbA1c above […] at Week 12 or later): 4 (1.3%) n (%)
Reason for treatment discontinuation: Adverse event ([3]; human, in vivo): 2 (0.7%) n (%)
